Experimental data reported in patent publication US20260049138A1 (Chugai, published 2026).
Where a chain is given by its changes, count along the chain named. Names may count otherwise.

B1: GLS3000 V94N one-arm antibody (antibody, human IgG1, kappa, L234A L235A, N297A, name in Kabat numbering)
heavy: QVQLVESGGGVVQPGRSLRLSCAASGFTFSNAWMHWVRQAPGKGLEWVAQIKAKSNNYATYYAESVKGRFTISRDDSKNSLYLQMNSLKTEDTAVYYCRYVHYGAYYGVDAWGQGTTVTVSSASTKGPSVFPLAPSSKSTSGGTAALGCLVKDYFPEPVTVSWNSGALTSGVHTFPAVLQSSGLYSLSSVVTVPSSSLGTQTYICNVNHKPSNTKVDKKVEPKSCDKTHTCPPCPAPEAAGGPSVFLFPPKPKDTLMISRTPEVTCVVVDVSHEDPEVKFNWYVDGVEVHNAKTKPREEQYASTYRVVSVLTVLHQDWLNGKEYKCKVSNKALPAPIEKTISKAKGQPREPQVYTLPPSRCELTKNQVSLSCAVKGFYPSDIAVEWESNGQPENNYKTTPPVLDSDGSFFLVSKLTVDKSRWQQGNVFSCSVMHEALHNHYTQKSLSLSPDYKDDDDK
chain: EPKSSDKTHTCPPCPAPELLGGPSVFLFPPKPKDTLMISRTPEVTCVVVDVSHEDPEVKFNWYVDGVEVHNAKTKPREEQYNSTYRVVSVLTVLHQDWLNGKEYKCKVSNKALPAPIEKTISKAKGQPREPQVCTLPPSRDELTKNQVSLWCLVKGFYPSDIAVEWESNGQPENNYKTTPPVLDSDGSFFLYSKLTVDKSRWQQGNVFSCSVMHEALHNRYTQKSLSLSP
light: DIVMTQSPLSLPVTPGEPASISCRSSQSLVHSNRNTYLHWYQQKPGQAPRLLIYKVSNRFSGVPDRFSGSGSGTDFTLKISRVEAEDVGVYYCGQGTQNPYTFGQGTKLEIKRTVAAPSVFIFPPSDEQLKSGTASVVCLLNNFYPREAKVQWKVDNALQSGNSQESVTEQDSKDSTYSLSSTLTLSKADYEKHKVYACEVTHQGLSSPVTKSFNRGEC
B2: GLS3000 V94P one-arm antibody (antibody, human IgG1, kappa, L234A L235A, N297A, name in Kabat numbering)
heavy: B1 heavy
chain: B1 chain
light: B1 light with N99P
B3: GLS3000 V94Q one-arm antibody (antibody, human IgG1, kappa, L234A L235A, N297A, name in Kabat numbering)
heavy: B1 heavy
chain: B1 chain
light: B1 light with N99Q
B4: GLS3000 V94R one-arm antibody (antibody, human IgG1, kappa, L234A L235A, N297A, name in Kabat numbering)
heavy: B1 heavy
chain: B1 chain
light: B1 light with N99R
B5: GLS3000 V94S one-arm antibody (antibody, human IgG1, kappa, L234A L235A, N297A, name in Kabat numbering)
heavy: B1 heavy
chain: B1 chain
light: B1 light with N99S
B6: GLS3000 V94T one-arm antibody (antibody, human IgG1, kappa, L234A L235A, N297A, name in Kabat numbering)
heavy: B1 heavy
chain: B1 chain
light: B1 light with N99T
B7: GLS3000 V94W one-arm antibody (antibody, human IgG1, kappa, L234A L235A, N297A, name in Kabat numbering)
heavy: B1 heavy
chain: B1 chain
light: B1 light with N99W
B8: GLS3000 V94Y one-arm antibody (antibody, human IgG1, kappa, L234A L235A, N297A, name in Kabat numbering)
heavy: B1 heavy
chain: B1 chain
light: B1 light with N99Y
B9: GLS3000 Y32A one-arm antibody (antibody, human IgG1, kappa, L234A L235A, N297A, name in Kabat numbering)
heavy: B1 heavy
chain: B1 chain
light: B1 light with Y37A, N99V
B10: GLS3000 Y32D one-arm antibody (antibody, human IgG1, kappa, L234A L235A, N297A, name in Kabat numbering)
heavy: B1 heavy
chain: B1 chain
light: B1 light with Y37D, N99V
B11: GLS3000 Y32F one-arm antibody (antibody, human IgG1, kappa, L234A L235A, N297A, name in Kabat numbering)
heavy: B1 heavy
chain: B1 chain
light: B1 light with Y37F, N99V
B12: GLS3000 Y32P one-arm antibody (antibody, human IgG1, kappa, L234A L235A, N297A, name in Kabat numbering)
heavy: B1 heavy
chain: B1 chain
light: B1 light with Y37P, N99V
B13: GLS3000 Y96D one-arm antibody (antibody, human IgG1, kappa, L234A L235A, N297A, name in Kabat numbering)
heavy: B1 heavy
chain: B1 chain
light: B1 light with N99V, Y101D
B14: GLS3000 Y96E one-arm antibody (antibody, human IgG1, kappa, L234A L235A, N297A, name in Kabat numbering)
heavy: B1 heavy
chain: B1 chain
light: B1 light with N99V, Y101E
B15: GLS3000 Y96F one-arm antibody (antibody, human IgG1, kappa, L234A L235A, N297A, name in Kabat numbering)
heavy: B1 heavy
chain: B1 chain
light: B1 light with N99V, Y101F
B16: GLS3000 Y96H one-arm antibody (antibody, human IgG1, kappa, L234A L235A, N297A, name in Kabat numbering)
heavy: B1 heavy
chain: B1 chain
light: B1 light with N99V, Y101H
B17: GLS3000 Y96L one-arm antibody (antibody, human IgG1, kappa, L234A L235A, N297A, name in Kabat numbering)
heavy: B1 heavy
chain: B1 chain
light: B1 light with N99V, Y101L
B18: CE115HA000 H35A one-arm antibody (antibody, human IgG1, kappa, L234A L235A, N297A, name in Kabat numbering)
heavy: B1 heavy with H35A
chain: B1 chain
light: B1 light with N99V
B19: CE115HA000 A32Y one-arm antibody (antibody, human IgG1, kappa, L234A L235A, N297A, name in Kabat numbering)
heavy: B1 heavy with A32Y
chain: B1 chain
light: B1 light with N99V
B20: CE115HA000 A52aD one-arm antibody (antibody, human IgG1, kappa, L234A L235A, N297A, name in Kabat numbering)
heavy: B1 heavy with A53D
chain: B1 chain
light: B1 light with N99V
B21: CE115HA000 A52aE one-arm antibody (antibody, human IgG1, kappa, L234A L235A, N297A, name in Kabat numbering)
heavy: B1 heavy with A53E
chain: B1 chain
light: B1 light with N99V
B22: CE115HA000 A52aG one-arm antibody (antibody, human IgG1, kappa, L234A L235A, N297A, name in Kabat numbering)
heavy: B1 heavy with A53G
chain: B1 chain
light: B1 light with N99V
B23: CE115HA000 A52aP one-arm antibody (antibody, human IgG1, kappa, L234A L235A, N297A, name in Kabat numbering)
heavy: B1 heavy with A53P
chain: B1 chain
light: B1 light with N99V
B24: CE115HA000 A52aS one-arm antibody (antibody, human IgG1, kappa, L234A L235A, N297A, name in Kabat numbering)
heavy: B1 heavy with A53S
chain: B1 chain
light: B1 light with N99V
B25: CE115HA000 A52aV one-arm antibody (antibody, human IgG1, kappa, L234A L235A, N297A, name in Kabat numbering)
heavy: B1 heavy with A53V
chain: B1 chain
light: B1 light with N99V
B26: CE115HA000 A52aY one-arm antibody (antibody, human IgG1, kappa, L234A L235A, N297A, name in Kabat numbering)
heavy: B1 heavy with A53Y
chain: B1 chain
light: B1 light with N99V
B27: CE115HA000 A56D one-arm antibody (antibody, human IgG1, kappa, L234A L235A, N297A, name in Kabat numbering)
heavy: B1 heavy with A59D
chain: B1 chain
light: B1 light with N99V
B28: CE115HA000 A56G one-arm antibody (antibody, human IgG1, kappa, L234A L235A, N297A, name in Kabat numbering)
heavy: B1 heavy with A59G
chain: B1 chain
light: B1 light with N99V
B29: CE115HA000 A56K one-arm antibody (antibody, human IgG1, kappa, L234A L235A, N297A, name in Kabat numbering)
heavy: B1 heavy with A59K
chain: B1 chain
light: B1 light with N99V
B30: CE115HA000 A56L one-arm antibody (antibody, human IgG1, kappa, L234A L235A, N297A, name in Kabat numbering)
heavy: B1 heavy with A59L
chain: B1 chain
light: B1 light with N99V
B31: CE115HA000 A56N one-arm antibody (antibody, human IgG1, kappa, L234A L235A, N297A, name in Kabat numbering)
heavy: B1 heavy with A59N
chain: B1 chain
light: B1 light with N99V
B32: GLS3000 Q45E one-arm antibody (antibody)
chain 1: B1 light with R50E, N99V
chain 2: B1 heavy
chain 3: B1 chain

Experiments:
CD3ε homodimer protein [1] = biological target: T1, CD3ε homodimer protein (human, UniProt P07766 23-126, limits assumed); assay: SPR Biacore T200, CD3ε homodimer on chip;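 note: Light-chain single-residue variant antibodies injected over amine-coupled CD3ε homodimer on a CM4 chip at 25 °C, bound amount divided by that of the GLS3000-containing antibody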
T1 construct: also called CD3 (CD3ε)
T1 sequence (P07766 23-126 limits assumed): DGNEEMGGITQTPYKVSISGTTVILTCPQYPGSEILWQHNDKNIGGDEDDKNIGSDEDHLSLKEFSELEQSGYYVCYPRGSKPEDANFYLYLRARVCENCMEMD

CD3ε homodimer protein [2] = biological target: T2, CD3ε homodimer protein (human, UniProt P07766 23-126, limits assumed, sulfo-tag or biotin label in the ECL assays; amine-coupled to the chip in SPR); assay: SPR Biacore T200; CD3ε homodimer on CM4 chip;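 note: Single-residue variant antibodies injected as analyte over CD3ε homodimer immobilized by amine coupling, run at 25 °C in HBS-EP+ buffer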
T2 construct: also called human CD3ε homodimer protein; CD3 (CD3ε)
T2 sequence (P07766 23-126 limits assumed): as above

Row | Binder | ratio of amount bound vs unaltered GLS3000 (CD3ε homodimer protein [1]) | ratio of amounts bound Z=Y/X (altered form / CE115HA000) (CD3ε homodimer protein [2])
1 | B1 | 1.05 | –
2 | B2 | 1.26 | –
3 | B3 | 0.76 | –
4 | B4 | 0.66 | –
5 | B5 | 0.93 | –
6 | B6 | 0.93 | –
7 | B7 | 0.58 | –
8 | B8 | 0.63 | –
9 | B9 | 0.24 | –
10 | B10 | 0.23 | –
11 | B11 | 0.29 | –
12 | B12 | 0.24 | –
13 | B13 | 0.17 | –
14 | B14 | 0.17 | –
15 | B15 | 1.17 | –
16 | B16 | 0.23 | –

Row | Binder | ratio of amount bound vs unaltered GLS3000 (CD3ε homodimer protein [1]) | ratio of amounts bound Z=Y/X (altered form / CE115HA000) (CD3ε homodimer protein [2])
17 | B17 | 0.32 | –
18 | B18 | – | 0.17
19 | B19 | – | 0.33
20 | B20 | – | 1.34
21 | B21 | – | 0.57
22 | B22 | – | 0.81
23 | B23 | – | 0.15
24 | B24 | – | 1.05
25 | B25 | – | 0.52
26 | B26 | – | 0.31
27 | B27 | – | 0.51
28 | B28 | – | 0.61
29 | B29 | – | 1.35
30 | B30 | – | 0.8
31 | B31 | – | 0.67
32 | B32 | 0.75 | –
